Measured values as given in US20200262867A1 (WNTRX PHARMACEUTICALS, published 2020).
*1 amine or outer side, *2 acyl side, *3 side chain or, on linkers, in order; H or OH if unused. Bridges are numbered along the chain shown (N, C = ends). Primed or numbered codes have the meaning given here. Where no end group is shown, it is not given here. Side-chain parts run from the residue outwards. [ ]: non-standard residue; d: D form. The star is where a group is joined. peptoid‑Q = (5-amino-5-oxopentyl)glycine, N-substituted glycine, NC(=O)CCCCN(CC(=O)[*:2])[*:1]; Diphenylacetyl = O=C(C(c1ccccc1)c1ccccc1)*; 2Nal = N[C@@H](Cc1ccc2ccccc2c1)C(=O)O; Hydrocinnamoyl = O=C(CCc1ccccc1)*; NMeR = CN[C@@H](CCCNC(=N)N)C(=O)O; Palmitoyl = CCCCCCCCCCCCCCCC(=O)*; Ala(cPr) = N[C@@H](CC1CC1)C(=O)O; hArg = N=C(N)NCCCC[C@H](N)C(=O)O; NMeE = CN[C@@H](CCC(=O)O)C(=O)O; NMeQ = CN[C@@H](CCC(N)=O)C(=O)O; dNMeQ = CN[C@H](CCC(N)=O)C(=O)O; Cha = N[C@@H](CC1CCCCC1)C(=O)O; Cba = N[C@@H](CC1CCC1)C(=O)O; S5 = C=CCCC[C@](C)(N)C(=O)O; Ac6c = NC1(C(=O)O)CCCCC1; PEG4′ = not defined here; βAla = NCCC(=O)O

T1: β-catenin, P35222
T1 chain: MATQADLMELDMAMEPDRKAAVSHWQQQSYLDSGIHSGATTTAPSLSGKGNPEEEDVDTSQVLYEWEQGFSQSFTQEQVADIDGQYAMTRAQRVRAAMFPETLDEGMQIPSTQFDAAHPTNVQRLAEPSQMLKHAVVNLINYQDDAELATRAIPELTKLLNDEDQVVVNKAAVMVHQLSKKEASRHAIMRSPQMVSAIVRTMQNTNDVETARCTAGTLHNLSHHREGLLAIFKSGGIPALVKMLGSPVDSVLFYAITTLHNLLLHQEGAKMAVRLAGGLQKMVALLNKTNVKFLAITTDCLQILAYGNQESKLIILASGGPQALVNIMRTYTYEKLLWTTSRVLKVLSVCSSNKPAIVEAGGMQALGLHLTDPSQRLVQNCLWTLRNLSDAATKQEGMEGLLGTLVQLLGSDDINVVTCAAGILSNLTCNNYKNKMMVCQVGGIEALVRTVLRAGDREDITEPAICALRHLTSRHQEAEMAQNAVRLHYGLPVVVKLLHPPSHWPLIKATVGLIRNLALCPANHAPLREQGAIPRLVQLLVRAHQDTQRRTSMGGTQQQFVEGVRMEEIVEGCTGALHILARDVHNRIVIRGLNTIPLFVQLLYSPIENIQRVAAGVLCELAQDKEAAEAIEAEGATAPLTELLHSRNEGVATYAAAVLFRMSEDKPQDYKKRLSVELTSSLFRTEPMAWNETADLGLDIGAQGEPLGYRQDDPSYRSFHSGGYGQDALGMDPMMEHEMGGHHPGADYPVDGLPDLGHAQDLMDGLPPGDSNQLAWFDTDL

T2: β-catenin (UniProt P35222 1-781, limits assumed)
T2 construct: also called beta-catenin
T2 sequence (looked up): T1 chain

B1: SEQ ID NO: 34a (peptide)
peptide: LQTLR[S5]IQR[S5]L[2Nal][βAla][βAla]GRKKRRQRRRPQK([PEG4′-Palmitoyl])
modifications: staple 6-10
B2: SEQ ID NO: 140 (peptide)
peptide: {3,5‑dihydroxybenzoic acid}-L[NMeQ]TLR[S5]IQR[S5][Cba][2Nal]-NH2
modifications: staple 6-10; also: N-methyl-Gln at 2: filing says both D and L
B3: SEQ ID NO: 180 (peptide)
peptide: Ac-HRQRSLQTLR[S5]IQR[S5][Cha][2Nal]-NH2
modifications: staple 11-15
SMILES: CC[C@H](C)[C@@H]1NC(=O)[C@@](C)(NC(=O)[C@H](CCCNC(=N)N)NC(=O)[C@H](CC(C)C)NC(=O)[C@@H](NC(=O)[C@H](CCC(N)=O)NC(=O)[C@H](CC(C)C)NC(=O)[C@H](CO)NC(=O)[C@H](CCCNC(=N)N)NC(=O)[C@H](CCC(N)=O)NC(=O)[C@H](CCCNC(=N)N)NC(=O)[C@H](Cc2c[nH]cn2)NC(C)=O)[C@@H](C)O)CCCC=CCCC[C@@](C)(C(=O)N[C@@H](CC2CCCCC2)C(=O)N[C@@H](Cc2ccc3ccccc3c2)C(N)=O)NC(=O)[C@H](CCCNC(=N)N)NC(=O)[C@H](CCC(N)=O)NC1=O
B4: SEQ ID NO: 138 (peptide)
peptide: {2‑cyclohexylacetyl}-L[NMeQ]TLR[S5]IQR[S5][Cba][2Nal]-NH2
modifications: staple 6-10; also: N-methyl-Gln at 2: filing says both D and L
B5: SEQ ID NO: 181 (peptide)
peptide: Ac-HR[NMeQ]RSL[NMeQ]TLR[S5]IQR[S5][Cha][2Nal]-NH2
modifications: staple 11-15; also: N-methylQ at 3 and 7: D or L (both stated)
B6: SEQ ID NO: 167 (peptide)
peptide: Ac-HRQ[hArg]SLQTLR[S5]IQR[S5][Cba][2Nal]-NH2
modifications: staple 11-15
B7: SEQ ID NO: 108 (peptide)
peptide: L[dNMeQ]TLR[S5]IQR[S5][Cba][2Nal]
modifications: staple 6-10; not fully specified (N-terminus, C-terminus); printed as L(N-methylQ)TLRXIQRX(CBA)(2-Nal), X/X stapled, (S) α-methyl, N-terminal Ac, C-terminal NH2
B8: SEQ ID NO: 137 (peptide)
peptide: Hydrocinnamoyl-L[NMeQ]TLR[S5]IQR[S5][Cba][2Nal]-NH2
modifications: staple 6-10; also: N-methyl-Gln at 2: filing says both D and L
B9: SEQ ID NO: 162 (peptide)
peptide: Ac-HRQRSLQTLR[S5]IQR[S5][Ala(cPr)][2Nal]-NH2
modifications: staple 11-15
B10: SEQ ID NO: 168 (peptide)
peptide: Ac-HRQ[NMeR]SLQTLR[S5]IQR[S5][Cba][2Nal]-NH2
modifications: staple 11-15
B11: SEQ ID NO: 177 (peptide)
peptide: Ac-HRQRSLQTLR[S5]IQR[S5][Ac6c][2Nal]-NH2
modifications: staple 11-15
B12: SEQ ID NO: 139 (peptide)
peptide: Diphenylacetyl-L[NMeQ]TLR[S5]IQR[S5][Cba][2Nal]-NH2
modifications: staple 6-10; also: N-methyl-Gln at 2: filing says both D and L
B13: SEQ ID NO: 154 (peptide)
peptide: Ac-HR[NMeE]RSL[NMeQ]TLR[S5]IQR[S5][Cba][2Nal]-NH2
modifications: staple 11-15
B14: SEQ ID NO: 163 (peptide)
peptide: HRQRSLQT[Cha]R[S5]IQR[S5][Cba][2Nal]
modifications: staple 11-15; not fully specified (residues 3, 7, N-terminus, C-terminus); printed as HR(N-methylQ)RSL(N-methylQ)T(Cha)RXIQRX(CBA)(2-Nal), X/X stapled, (S) α-methyl, N-terminal Ac, C-terminal NH2
B15: SEQ ID NO: 169 (peptide)
peptide: Ac-HRQRSL[peptoid‑Q]TLR[S5]IQR[S5][Cba][2Nal]-NH2
modifications: staple 11-15
B16: SEQ ID NO: 147 (peptide)
peptide: Ac-HRQRSLQTLR[S5]IQR[S5][Cba][2Nal]-NH2
modifications: staple 11-15

Biological target: T1, β-catenin, P35222
Assay: ALPHA Screen (BCL9/β-catenin)

| Binder | IC50 [µM] |
| --- | --- |
| B1 | 1.38 |

Biological target: T1, β-catenin, P35222
Assay: cell-based or functional assay

| Binder | IC50, Colo320DM cell viability [µM] |
| --- | --- |
| B1 | 20 |

The binders below were run against T2, β-catenin (assay: ALPHA Screen (BCL9/β-catenin);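 further: bead proximity readout with the polypeptide linked to donor beads and β-catenin fixed on acceptor beads, their binding bringing the beads close enough to emit signal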).
Description: In this assay, a polypeptide is conjugated to a donor bead and its target protein (i.e., β-catenin) is attached to an acceptor bead. When the two beads are in proximity due to the binding of the polypeptide to the target protein, a signal is generated and the binding affinity of the polypeptide can be quantitatively calculated. The assay may be conducted in the presence or absence of an unconjugated control polypeptide.

| Binder | IC50 [µM] |
| --- | --- |
| B2 | 8.16 |
| B3 | 0.138 |
| B4 | 3.82 |
| B5 | 0.186 |
| B6 | 0.356 |
| B7 | 0.408 |
| B8 | 8.36 |
| B9 | 0.322 |
| B10 | 0.434 |
| B11 | 0.211 |
| B12 | 4.58 |
| B13 | 0.661 |
| B14 | 0.195 |
| B15 | 0.328 |
| B16 | 0.186 |

These binders were tested against T2, β-catenin (assay: cell-based or functional assay).

| Binder | IC50, Wnt/Beta-Catenin-LEF-TCF-bla HCT116 inhibitor screen [µM] |
| --- | --- |
| B3 | 2.21 |
| B5 | 4.46 |
| B7 | 3.16 |
| B9 | 7.05 |
| B11 | 4.45 |
| B13 | 2.26 |
| B14 | 4.43 |
| B16 | 1.54 |
